From US20050100554A1 (published 2005)

How the values were obtained:
[1] = biological target: T1, catenin (cadherin-associated protein), delta 2 (neural plakophilin-related arm-repeat protein) (human, UniProt Q9UQB3 1-1225); test: Y2H; INT ID 397
T1 construct: also called CTNND2; cbe_1796502
T1 sequence: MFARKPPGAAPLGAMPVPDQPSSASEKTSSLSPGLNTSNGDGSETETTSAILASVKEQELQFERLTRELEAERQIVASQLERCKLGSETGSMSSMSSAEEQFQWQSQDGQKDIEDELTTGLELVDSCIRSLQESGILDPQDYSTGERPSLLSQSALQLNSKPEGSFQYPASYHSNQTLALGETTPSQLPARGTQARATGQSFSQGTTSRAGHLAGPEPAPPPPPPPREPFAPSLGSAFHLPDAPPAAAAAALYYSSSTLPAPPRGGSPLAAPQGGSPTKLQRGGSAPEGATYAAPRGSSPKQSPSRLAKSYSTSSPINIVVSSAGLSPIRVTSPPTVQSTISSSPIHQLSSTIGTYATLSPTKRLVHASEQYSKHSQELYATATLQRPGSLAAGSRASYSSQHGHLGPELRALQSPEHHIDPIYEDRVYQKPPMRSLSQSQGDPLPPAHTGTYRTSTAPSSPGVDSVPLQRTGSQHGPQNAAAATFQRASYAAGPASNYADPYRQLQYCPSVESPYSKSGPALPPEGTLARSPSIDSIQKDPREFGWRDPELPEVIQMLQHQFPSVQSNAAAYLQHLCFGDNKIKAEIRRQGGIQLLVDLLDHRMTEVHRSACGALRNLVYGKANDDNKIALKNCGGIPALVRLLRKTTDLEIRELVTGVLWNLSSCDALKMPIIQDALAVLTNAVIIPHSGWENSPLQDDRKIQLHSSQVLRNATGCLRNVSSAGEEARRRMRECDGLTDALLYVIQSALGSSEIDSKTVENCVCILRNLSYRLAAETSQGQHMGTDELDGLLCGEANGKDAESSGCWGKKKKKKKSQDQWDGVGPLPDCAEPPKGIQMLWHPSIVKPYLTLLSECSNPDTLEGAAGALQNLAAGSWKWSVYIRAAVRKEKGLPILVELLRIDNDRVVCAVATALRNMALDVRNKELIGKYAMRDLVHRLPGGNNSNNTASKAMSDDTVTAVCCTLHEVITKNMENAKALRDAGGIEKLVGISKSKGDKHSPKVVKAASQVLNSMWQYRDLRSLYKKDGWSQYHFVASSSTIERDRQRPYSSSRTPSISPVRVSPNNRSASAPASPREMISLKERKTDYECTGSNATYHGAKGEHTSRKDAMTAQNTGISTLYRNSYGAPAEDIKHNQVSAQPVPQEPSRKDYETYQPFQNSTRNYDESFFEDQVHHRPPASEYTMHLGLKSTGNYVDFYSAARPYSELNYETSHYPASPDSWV

[2] = biological target: T2, kinesin-associated protein 3 (human, UniProt Q92845 1-792); test: Y2H; INT ID 406
T2 construct: also called KIFAP3; cbe_4138433

TNNC1 = biological target: T3, TNNC1 (human, UniProt P63316 1-161); test: Y2H; INT ID 407
T3 construct: also called cbe_4267981

ribosomal protein L13 = biological target: T4, ribosomal protein L13 (human, UniProt P26373 1-211); test: Y2H; INT ID 396
T4 construct: also called RPL13; cbe_1380530

Prey1207 = biological target: T5, Prey1207 (human, UniProt Q6PI78 63-240); test: Y2H; INT ID 409
T5 construct: also called LOC157378; hypothetical protein BC017881
T5 sequence: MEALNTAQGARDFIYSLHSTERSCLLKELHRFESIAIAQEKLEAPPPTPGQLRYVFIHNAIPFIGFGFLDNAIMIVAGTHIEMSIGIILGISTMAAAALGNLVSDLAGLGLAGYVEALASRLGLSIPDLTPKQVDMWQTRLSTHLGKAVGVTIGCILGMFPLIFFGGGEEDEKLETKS

Measured: binding result

T2 sequence (Q92845 whole entry): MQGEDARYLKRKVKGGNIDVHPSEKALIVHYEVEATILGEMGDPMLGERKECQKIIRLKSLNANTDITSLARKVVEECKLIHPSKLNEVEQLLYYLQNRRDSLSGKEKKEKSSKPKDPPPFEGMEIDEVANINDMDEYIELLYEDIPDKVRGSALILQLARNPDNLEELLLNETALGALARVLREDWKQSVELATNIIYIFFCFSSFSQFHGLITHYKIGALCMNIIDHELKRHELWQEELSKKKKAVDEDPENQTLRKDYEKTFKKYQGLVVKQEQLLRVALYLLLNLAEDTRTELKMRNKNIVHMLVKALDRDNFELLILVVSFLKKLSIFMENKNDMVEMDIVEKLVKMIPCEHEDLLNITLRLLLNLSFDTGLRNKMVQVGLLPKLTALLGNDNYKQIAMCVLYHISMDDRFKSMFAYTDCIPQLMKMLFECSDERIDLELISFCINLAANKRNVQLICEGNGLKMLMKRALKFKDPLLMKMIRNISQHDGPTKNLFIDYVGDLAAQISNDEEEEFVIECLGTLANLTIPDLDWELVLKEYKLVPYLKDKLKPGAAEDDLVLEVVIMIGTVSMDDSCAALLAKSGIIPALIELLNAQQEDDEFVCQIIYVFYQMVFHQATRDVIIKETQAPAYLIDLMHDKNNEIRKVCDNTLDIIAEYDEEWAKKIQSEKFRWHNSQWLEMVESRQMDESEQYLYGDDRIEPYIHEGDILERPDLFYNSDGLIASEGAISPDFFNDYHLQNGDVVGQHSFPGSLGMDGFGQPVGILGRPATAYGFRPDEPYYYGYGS

B1: Human Papillomavirus 1a E1-E4 (other)
chain: MADNKAPQGLLGLLQYTPTTQPYPRVTPPSNRRPSTTPNSQDRGRPRRSDKDSRKHLYADGLTDGEDPEVPEVEDEEKENQRPLGHPDLSLLRETLEVYTQRLKRDILQDLDDFCRKLGIHPWSV
notes: also called HPV 1a E1-E4; cbe_251740
binds: all assays above
